{"source": "patent US20160257732A1", "about": "(published 2016)", "binders": {"B1": {"name": "Antibody 3 (antibody, V domains shown)", "VH": "QVQLQESGPGLVKPSQTLSLTCAISGDSVSSNNAVWNWIRQSPSRGLEWLGRTYYRSKWYNDYAESVKSRITVNPDTSKNQFSLHLKSVTPEDTAVFYCVRSGHITVFGVNVDAFDMWGQGTMVTVSS", "VL": "DIQMTQSPSSLSASVGDRVTITCRTSQSLSSYLHWYQQKPGKAPKLLIYAASSLQSGVPSRFSGSGSGTDFTLTISSLQPEDFATYYCQQSRTFGQGTKVEIK"}}, "assay_in_all_cases": "cell-based or functional assay", "key": {"[1]": {"target": "HA of swine-origin A/Minnesota/11/2010 H3N2 virus (influenza A virus)"}, "[2]": {"target": "HA of A/Wisconsin/67/05 (H3N2) (influenza A virus)"}, "[3]": {"target": "HA of A/Hong Kong/8/68 (H3N2) (influenza A virus)"}, "[4]": {"target": "HA of ca A/Panama/2007/99 (H3N2) (influenza A virus)"}, "[5]": {"target": "HA of A/Wyoming/03/03 (H3N2) (influenza A virus)"}, "[6]": {"target": "HA of ca A/Netherlands/219/03 (H7N7) (influenza A virus)"}, "[7]": {"target": "HA of A/Kawasaki/9/86 (H1N1) (influenza A virus)"}, "[8]": {"target": "HA of ca A/Vietnam/1203/04 (H5N1) (influenza A virus)"}, "[9]": {"target": "HA of A/Fort Monmouth/1/47 (H1N1) (influenza A virus)"}, "[10]": {"target": "HA of ca A/swine/Missouri/06 (H2N3) (influenza A virus)"}, "[11]": {"target": "HA of ca A/Texas/36/91 (H1N1) (influenza A virus)"}, "[12]": {"target": "HA of ca A/Hong Kong/213/03 (H5N1) (influenza A virus)"}, "[13]": {"target": "HA of A/Victoria/3/75 (H3N2) (influenza A virus)"}, "[14]": {"target": "HA of ca A/teal/Hong Kong/W312/97 (H6N1) (influenza A virus)"}, "[15]": {"target": "T1, HA of ca A/Brit. Columbia/CN-6/04 (H7N3-LP) (influenza A virus)"}, "[16]": {"target": "HA of ca A/Beijing/262/95 (H1N1) (influenza A virus)"}, "[17]": {"target": "HA of A/New Jersey/8/76 (H1N1) (influenza A virus)"}, "[18]": {"target": "T2, HA of ca A/chicken/Hong Kong/G9/97 (H9N2) (influenza A virus)"}, "[19]": {"target": "HA of ca A/Perth/16/09 (H3N2) (influenza A virus)"}, "[20]": {"target": "HA of ca A/Sydney/5/97 (H3N2) (influenza A virus)"}, "[21]": {"target": "HA of ca A/New Caledonia/20/99 (H1N1) (influenza A virus)"}, "[22]": {"target": "HA of A/Wisconsin/67/05 (H3N2) (influenza A virus)", "remark": "listed apart in the source"}, "[23]": {"target": "HA of A/Hong Kong/8/68 (H3N2) (influenza A virus)", "remark": "listed apart in the source"}, "[24]": {"target": "HA of ca A/Panama/2007/99 (H3N2) (influenza A virus)", "remark": "listed apart in the source"}, "[25]": {"target": "HA of ca A/Anhui/1/13 (H7N9) (influenza A virus)"}, "[26]": {"target": "HA of ca A/Netherlands/219/03 (H7N7) (influenza A virus)", "remark": "listed apart in the source"}, "[27]": {"target": "HA of A/Kawasaki/9/86 (H1N1) (influenza A virus)", "remark": "listed apart in the source"}, "HA of virus H1-BS10": {"target": "HA of virus H1-BS10"}, "[28]": {"target": "HA of ca A/Vietnam/1203/04 (H5N1) (influenza A virus)", "remark": "listed apart in the source"}, "[29]": {"target": "HA of A/Fort Monmouth/1/47 (H1N1) (influenza A virus)", "remark": "listed apart in the source"}, "[30]": {"target": "HA of ca A/swine/Missouri/06 (H2N3) (influenza A virus)", "remark": "listed apart in the source"}, "[31]": {"target": "HA of ca A/mallard/Alberta/89/85 (H6N2) (influenza A virus)"}, "[32]": {"target": "HA of ca A/Texas/36/91 (H1N1) (influenza A virus)", "remark": "listed apart in the source"}, "[33]": {"target": "HA of ca A/Hong Kong/213/03 (H5N1) (influenza A virus)", "remark": "listed apart in the source"}, "[34]": {"target": "HA of A/Victoria/3/75 (H3N2) (influenza A virus)", "remark": "listed apart in the source"}, "[35]": {"target": "HA of ca A/Japan/57 (H2N2) (influenza A virus)"}, "[36]": {"target": "HA of ca A/teal/Hong Kong/W312/97 (H6N1) (influenza A virus)", "remark": "listed apart in the source"}, "[37]": {"target": "T1, HA of ca A/Brit. Columbia/CN-6/04 …", "remark": "listed apart in the source"}, "[38]": {"target": "HA of ca A/Beijing/262/95 (H1N1) (influenza A virus)", "remark": "listed apart in the source"}, "[39]": {"target": "HA of A/New Jersey/8/76 (H1N1) (influenza A virus)", "remark": "listed apart in the source"}, "[40]": {"target": "T2, HA of ca A/chicken/Hong Kong/G9/97 …", "remark": "listed apart in the source"}, "[41]": {"target": "HA of A/Victoria/361/11 (H3N2) (influenza A virus)"}, "[42]": {"target": "HA of ca A/Perth/16/09 (H3N2) (influenza A virus)", "remark": "listed apart in the source"}, "[43]": {"target": "HA of ca A/Sydney/5/97 (H3N2) (influenza A virus)", "remark": "listed apart in the source"}, "[44]": {"target": "HA of ca A/New Caledonia/20/99 (H1N1) (influenza A virus)", "remark": "listed apart in the source"}}, "note": "Several values for one entry are separate records, joined by “and”; a condition that tells them apart may be missing. Identical values can stand only once. Like-named read-outs stand apart in the source and are kept apart here."}
{"binder": "B1", "values": [{"measurement": "Neutralizing activity IC50, swine-origin A/Minnesota/11/2010", "setting": "[1]", "result": "2.2 µg/mL and 4.2 µg/mL"}, {"measurement": "Neutralization IC50, H3-WI05", "setting": "[2]", "result": 2.44, "unit": "µg/mL"}, {"measurement": "Neutralization IC50, H3-HK68", "setting": "[3]", "result": 0.68, "unit": "µg/mL"}, {"measurement": "Neutralization IC50, H3-Pa99", "setting": "[4]", "result": 17.7, "unit": "µg/mL"}, {"measurement": "Neutralization IC50, H3-Wy03", "setting": "[5]", "result": 0.63, "unit": "µg/mL"}, {"measurement": "Neutralization IC50, H7-NLD03", "setting": "[6]", "result": 4.78, "unit": "µg/mL"}, {"measurement": "Neutralization IC50, H1-Kaw86", "setting": "[7]", "result": 0.58, "unit": "µg/mL"}, {"measurement": "Neutralization IC50, H5-VM04", "setting": "[8]", "result": 2.11, "unit": "µg/mL"}, {"measurement": "Neutralization IC50, H1-FM47", "setting": "[9]", "result": 0.92, "unit": "µg/mL"}, {"measurement": "Neutralization IC50, H2-MO06", "setting": "[10]", "result": 2.27, "unit": "µg/mL"}, {"measurement": "Neutralization IC50, H1-TX91", "setting": "[11]", "result": 0.6, "unit": "µg/mL"}, {"measurement": "Neutralization IC50, H5-HK03", "setting": "[12]", "result": 4.64, "unit": "µg/mL"}, {"measurement": "Neutralization IC50, H3-Vic75", "setting": "[13]", "result": 0.75, "unit": "µg/mL"}, {"measurement": "Neutralization IC50, H6-HK97", "setting": "[14]", "result": 1.77, "unit": "µg/mL"}, {"measurement": "Neutralization IC50, H7-BC04", "setting": "[15]", "result": 4.72, "unit": "µg/mL"}, {"measurement": "Neutralization IC50, H1-BJ95", "setting": "[16]", "result": 3.41, "unit": "µg/mL"}, {"measurement": "Neutralization IC50, H1-NJ76", "setting": "[17]", "result": 1.41, "unit": "µg/mL"}, {"measurement": "Neutralization IC50, H9-HK97", "setting": "[18]", "result": 1.79, "unit": "µg/mL"}, {"measurement": "Neutralization IC50, H3-Perth09", "setting": "[19]", "result": 1.49, "unit": "µg/mL"}, {"measurement": "Neutralization IC50, H3-Syd97", "setting": "[20]", "result": 3.75, "unit": "µg/mL"}, {"measurement": "Neutralization IC50, H1-Ncal99", "setting": "[21]", "result": 0.79, "unit": "µg/mL"}, {"measurement": "Neutralization IC50, H3-WI05", "setting": "[22]", "result": 2.62, "unit": "µg/mL"}, {"measurement": "Neutralization IC50, H3-HK68", "setting": "[23]", "result": 1.37, "unit": "µg/mL"}, {"measurement": "Neutralization IC50, H3-Pa99", "setting": "[24]", "result": 9, "unit": "µg/mL"}, {"measurement": "Neutralization IC50, H7-ANU13", "setting": "[25]", "result": 4.26, "unit": "µg/mL"}, {"measurement": "Neutralization IC50, H7-NLD03", "setting": "[26]", "result": 4.74, "unit": "µg/mL"}, {"measurement": "Neutralization IC50, H1-Kaw86", "setting": "[27]", "result": 1.01, "unit": "µg/mL"}, {"measurement": "Neutralization IC50, H1-BS10", "setting": "HA of virus H1-BS10", "result": 2.16, "unit": "µg/mL"}, {"measurement": "Neutralization IC50, H5-VM04", "setting": "[28]", "result": 1.19, "unit": "µg/mL"}, {"measurement": "Neutralization IC50, H1-FM47", "setting": "[29]", "result": 1.04, "unit": "µg/mL"}, {"measurement": "Neutralization IC50, H2-MO06", "setting": "[30]", "result": 1.09, "unit": "µg/mL"}, {"measurement": "Neutralization IC50, H6-AB85", "setting": "[31]", "result": 0.69, "unit": "µg/mL"}, {"measurement": "Neutralization IC50, H1-TX91", "setting": "[32]", "result": 0.92, "unit": "µg/mL"}, {"measurement": "Neutralization IC50, H5-HK03", "setting": "[33]", "result": 0.71, "unit": "µg/mL"}, {"measurement": "Neutralization IC50, H3-Vic75", "setting": "[34]", "result": 1.12, "unit": "µg/mL"}, {"measurement": "Neutralization IC50, H2-JP57", "setting": "[35]", "result": 0.46, "unit": "µg/mL"}, {"measurement": "Neutralization IC50, H6-HK97", "setting": "[36]", "result": 0.63, "unit": "µg/mL"}, {"measurement": "Neutralization IC50, H7-BC04", "setting": "[37]", "result": 2.95, "unit": "µg/mL"}, {"measurement": "Neutralization IC50, H1-BJ95", "setting": "[38]", "result": 2.98, "unit": "µg/mL"}, {"measurement": "Neutralization IC50, H1-NJ76", "setting": "[39]", "result": 0.57, "unit": "µg/mL"}, {"measurement": "Neutralization IC50, H9-HK97", "setting": "[40]", "result": 1.18, "unit": "µg/mL"}, {"measurement": "Neutralization IC50, H3-VC11", "setting": "[41]", "result": 3.4, "unit": "µg/mL"}, {"measurement": "Neutralization IC50, H3-Perth09", "setting": "[42]", "result": 1.3, "unit": "µg/mL"}, {"measurement": "Neutralization IC50, H3-Syd97", "setting": "[43]", "result": 6.5, "unit": "µg/mL"}, {"measurement": "Neutralization IC50, H1-Ncal99", "setting": "[44]", "result": 1.16, "unit": "µg/mL"}]}
